Assay results from patent US20130302329A1, “DIAGNOSTIC TESTS FOR IMMUNE REACTIVITY WITH HUMAN ENDOTHELIAL CELL GROWTH FACTOR” (TRUSTEES OF BOSTON UNIVERSITY, priority 2010, published 2013).

How the values were obtained:
PBMC [1] = test: Retest of peptides with the patient's own PBMC: IFN-γ secretion; type: cell-based, human; conditions: PBMC of patient LA1, second assay
Source text: Only two peptide sets (set 33 and set 40) induced proliferation responses that were >2 times background (FIG. 2). Enough cells remained for retesting the first set together and the second peptide set individually. In the second assay, only one peptide induced proliferation and IFN-γ secretion that were >2 times background. This peptide (^340LGRFERMLAAQGGVDPG^355) (SEQ ID NO:1), 1 of the 16 identified by only one of the three search programs, originated from the source protein platelet-derived endothelial cell growth factor (ECGF), also called thymidine phosphorylase or gliostatin.

PBMC [2] = test: Testing of subjects' PBMC with commercially available recombinant ECGF; type: cell-based, human
Description: Initially, subjects' PBMC were tested using commercially available recombinant ECGF. […] Consequently, three HLA-DR T-cell epitope prediction algorithms (Wang et al., PLoS Computat. Biol. e1000048 (2008)), were used to identify seven ECGF peptides, including the one peptide identified in the initial patients' sample (ECGF340-365), that were predicted to be presented by the HLA-DR molecules associated with antibiotic-refractory Lyme arthritis. These peptides were synthesized and tested for autoreactivity via IFN-γ ELISPOT assays using patient and control PBMC (FIG. 3). Based upon the values obtained in 14 healthy control subjects (FIG. 3), a positive T cell response was defined as a stimulation index (no. of spots induced by an ECGF peptide /no. of spots in no antigen controls) 3 standard deviation (SD) above the mean of healthy controls, which characteristically gave >40 spot forming units (SFU)/10^6 PBMC and a stimulation index of >8.

## LGRFERMLAAQGVDPG (listed as Homo sapiens) [SEQ ID NO:1, ECGF peptide (index case), HLA-DR-presented, identified in LA1 synovial sample]
PBMC [1]
  IFN-γ secretion relative to background: > 2 times background

B1: ECGF: commercially available recombinant human platelet-derived endothelial cell growth factor, also called thymidine phosphorylase or gliostatin (protein, UniProt P19971 11-482, looked up)
Thymidine phosphorylase: APPAPGDFSGEGSQGLPDPSPEPKQLPELIRMKRDGGRLSEADIRGFVAAVVNGSAQGAQIGAMLMAIRLRGMDLEETSVLTQALAQSGQQLEWPEAWRQQLVDKHSTGGVGDKVSLVLAPALAACGCKVPMISGRGLGHTGGTLDKLESIPGFNVIQSPEQMQVLLDQAGCCIVGQSEQLVPADGILYAARDVTATVDSLPLITASILSKKLVEGLSALVVDVKFGGAAVFPNQEQARELAKTLVGVGASLGLRVAAALTAMDKPLGRCVGHALEVEEALLCMDGAGPPDLRDLVTTLGGALLWLSGHAGTQAQGAARVAAALDDGSALGRFERMLAAQGVDPGLARALCSGSPAERRQLLPRAREQEELLAPADGTVELVRALPLALVLHELGAGRSRAGEPLRLGVGAELLVDVGQRLRRGTPWLRVHRDGPALSGPQSRALQEALVLSDRAPFAAPSPFAELVLPPQQ
PBMC [2]; actively dividing cells
  effect on thymidine incorporation: inhibited thymidine incorporation into actively dividing cells
PBMC [2]; subjects' PBMC
  IFN-γ secretion by PBMC: non-specifically induced PBMC to secrete IFN-γ
